Results on 3 molecules are retold here after PMC13480645 (PLOS Pathogens, 2026).

Changes are numbered by the printed parent chain.

Assay [1] deals with T1, HCoV-HKU1 S2 stem helix peptide (Human coronavirus HKU1, isolate N1, biotin on the N-terminus).
T1 chain: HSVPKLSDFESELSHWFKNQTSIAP
Nature of the assay: BLI. Conditions: both partners purified.

Assay [2] concerns the target T2, SARS-CoV-2 spike, full length, expressed on the cell surface (SARS-CoV-2, UniProt P0DTC2). As to the kind of experiment: cell-based or functional assay.
For assay [3], the target named is T3, HCoV-HKU1 S2 stem helix peptide, biotinylated (Human coronavirus HKU1, isolate N1, biotin on the N-terminus).
T3 construct: also called HCoV-HKU1 stem helix peptide
T3 chain: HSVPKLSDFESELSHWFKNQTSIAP
As to the kind of experiment: BLI. Conditions: both partners purified.

In assay [4] the target is T2, SARS-CoV-2 spike, full length, …. Nature of the assay: flow cytometry on cells. Conditions: one partner purified.

B1: eCC65.1-12 (antibody, V domains shown)
VH: EVQLVQSGAEVKKPGASVKVSCKASGYTFTSQYMHWVRQAPGQGLEWMGIIDPSGGGTSYAQKFRDRVSMTRDTPTSTVYMELRSLRSEDTAVYYCASLWFENPSWRDYWGQGTLVTVSS
VL: DVVMTQSPGTLSLSPGERATLSCRASQTVNKNYLAWYQQKPGQAPRLLIYHASSRATGIPDRFSGSGSGTDFTLTISRLEPEDFAVYYCQQYGASPPLFTFGPGTKLEIK
Turning to B1, in assay [1], binding was characterised by a dissociation constant (Kd) of 0.129 nM and the kon stood at 301000 M⁻¹ s⁻¹.

B2: CC65.1 human monoclonal antibody (IgG) (antibody, V domains shown)
VH: B1 VH
VL: B1 VL with K31S, H51R, A94S
In the case of B2, the “IC50 of neutralization of SARS-CoV-2 pseudovirus (HeLa-hACE2 cells)” value in assay [2] stood at 6.16 µg/mL.

B3: engineered CC65.1 mAb eCC65.1-12 (IgG) (antibody, V domains shown)
VH: B1 VH
VL: B1 VL
notes: copies: 2 + 2
Consider B3, for which the “fold increase in affinity over parental CC65.1” value in assay [3] stood at 6.7 fold. Besides, in assay [4], the binding result is recorded as “binds”.
